Test results: the nanobody polyreactivity screen of Harvey et al. (2022)

assay: yeast display, Sf9 membrane polyspecificity reagent, FACS + sequencing; frameworks hold sequencing errors
Procedure, shortened: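 After 36–48 hours of galactose induction, yeast (Saccharomyces cerevisiae BJ5465) displaying a synthetic nanobody library were stained at 4 °C for 1 hour with 10% biotinylated, detergent-solubilized Sf9 membrane reagent. Streptavidin microbeads enriched the stained cells before FACS sorting into low and high (top ~1%) gates on anti-HA and streptavidin fluorescence. Each clone's polyreactivity label reflects its gate of origin.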

Which “polyreactivity (PSR sort gate)” value does the source give for “QVQLVESGGGLVQAGGSLRLSCAASGFIFDRNAMGWYRQAPGKERELVAAISVSGGNTYYADSVKGRFTISRDNAKNTVYLQMNSLKPEDTAVYYCAASRYHSTRGDYWGQGTQVTVSS” here?
The value was “high polyreactivity”.

With “QVQLVESGGGLVQAGGSLRLSCAASGFIFDSYAMGWYRQAPGKERELVAAISWSGGRTYYADSVKGRFTISRDNAKNTVFLQMNSLKPEDSAVYYCAADTWFGMDYWGQGTEVTVSS” as the sequence, how does the “polyreactivity (PSR sort gate)” value read?
Its value is “high polyreactivity”.

For “QVQLVESGGGLVQAGGSLRLSCAASGFIFDSYAMGWYRQAPGKERELVAAISYSAGSTSYADSVKGRFTISRDNAKNTVYLQMNSLKPEDTAVYYCNARYYPLYSNSYYSWGQGTQVTVSS”, which “polyreactivity (PSR sort gate)” value is on record?
The value was “low polyreactivity”.

For “QVQLVESGGGLVQAGGSLRLSCAASGFIFDSYAMGWYRQAPGKESELVAAINWNGGRTYYADSVRGRFTISRDNAKNTVYLQMNSLKPEDTAVYYCNAPGIHLGYYRFGYWGQGTQVTVSS”, which “polyreactivity (PSR sort gate)” value is on record?
Its value is “high polyreactivity”.

With “QVQLVESGGGLVQAGGSLRLSCAASGFIFDSYVMGWYRQAPGKERELVAAISRRNSSTYYADSVKGRFTNSRDNAKNTVYLQMNSLKPEDTAVYYCAAKYLRAYGYWGQGTQVTVSS” as the sequence, how does the “polyreactivity (PSR sort gate)” value read?
Its value is “high polyreactivity”.

For “QVQLVESGGGLVQAGGSLRLSCAASGFIFDTYAMGWYRQAPGKERELVATINDRGDSTSYADSVKGRFTISRDNAKNTVYLQMNSLKPEDTAVYYCARTWGLRYRWSYGRSRYNYWGQGTQVTVSS”, which “polyreactivity (PSR sort gate)” value is on record?
The value was “low polyreactivity”.

Which “polyreactivity (PSR sort gate)” value does the source give for “QVQLVESGGGLVQAGGSLRLSCAASGFIFDVYAMGWYRQAPGKERELVAAISSSGGRTYYADSVKGRFTISRDNAKNTVYLQMNSLKPEDSAVYYCAAKTHSRTKVYTADYWGQGTQVTVSS” here?
Its value is “high polyreactivity”.

For “QVQLVESGGGLVQAGGSLRLSCAASGFIFDVYAMGWYRQAPGNERELVATISSGDSTYYADSVKGRFTISRDNAKNTVYLQMNSLKPEDTAVYYCNTTEHKYVSSFEYGYWGQGTQVTVSS”, which “polyreactivity (PSR sort gate)” value is on record?
Its value is “low polyreactivity”.

With “QVQLVESGGGLVQAGGSLRLSCAASGFIFDYYAMGWYRQAPGKERELVAVINQSGTSTYYADSVKGRFTISRDNAKNTVYLQMNSLKPEDTAVYYCSVDYGTPVYWDEMYYWGQGTQVTVSS” as the sequence, how does the “polyreactivity (PSR sort gate)” value read?
Its value is “low polyreactivity”.

With “QVQLVESGGGLVQAGGSLRLSCAASGFIFDYYMGWYRQAPGKERELVARISYTGGSTYYADSVKGRFTISRDNAKNTVYLQMNSLNPEDTAVYYCATRGAEAERFASYDFDYWGQGTQVTVSS” as the sequence, how does the “polyreactivity (PSR sort gate)” value read?
The value was “low polyreactivity”.

Which “polyreactivity (PSR sort gate)” value does the source give for “QVQLVESGGGLVQAGGSLRLSCAASGFIFEDYAMGWYRQAPGKERELVAAIRSNDDSTYYADSVKGRFTISRDNSKNTVYLHMNSLKPEDTAVYYCNKGLRRWSTRSHYYYWGQGTQVTVSS” here?
The value was “high polyreactivity”.

Which “polyreactivity (PSR sort gate)” value does the source give for “QVQLVESGGGLVQAGGSLRLSCAASGFIFEDYAMGWYRQAPGKERELVAAITWRGGRTYYADSVKGRFTISRDNAKNTVYLQMNSLKPEDTAVYYCRPQVYSYASRYGYWGQGTQVTVLS” here?
Its value is “low polyreactivity”.

Which “polyreactivity (PSR sort gate)” value does the source give for “QVQLVESGGGLVQAGGSLRLSCAASGFIFEHYAMGWYRQAPGKEREMVARISWRGGSTYYADSVKGRFTISRDNAKNTVYLQMNSLKPEDTAVYYCNAQEVVYFGYYPSDYWGQGTQVTVSS” here?
Its value is “low polyreactivity”.

Which “polyreactivity (PSR sort gate)” value does the source give for “QVQLVESGGGLVQAGGSLRLSCAASGFIFETNAMGWYRQAPGNERELVAAISSRGGSTYYADSVKGRFTISRDNAKNTVYLQMNSLKPEDTAVYYCAAKLVVSYGQEYDYWGQGTQVTVSS” here?
The value was “low polyreactivity”.

Which “polyreactivity (PSR sort gate)” value does the source give for “QVQLVESGGGLVQAGGSLRLSCAASGFIFEYYAMGGYRQAPGKERELVAAISGGGRTYYADSVKGRFTISRDNAKNTVYLQMNSLKPEDTAVYYCAAGYAYRGYWVNRITRDGYWGQGTQVTVSS” here?
Its value is “high polyreactivity”.

Which “polyreactivity (PSR sort gate)” value does the source give for “QVQLVESGGGLVQAGGSLRLSCAASGFIFEYYAMGWYRQAPGKERELVAAISSGGGRTYYADSVKGRFTISRDNAKNTVYLQMNSLKPEDTAVYYCAAGFYVDYQLYEYWGQGTQVTVSS” here?
Its value is “high polyreactivity”.

Which “polyreactivity (PSR sort gate)” value does the source give for “QVQLVESGGGLVQAGGSLRLSCAASGFIFEYYAMGWYRQAPGKERELVAAISSSGGSTYYADSVKGRFTISRDNAKITVYLQINSLKPEDTAVYYCAKDYAPSAKKLHYWGQGTQVTVSS” here?
Its value is “low polyreactivity”.

With “QVQLVESGGGLVQAGGSLRLSCAASGFIFFNYAMGWYRQAPGKERELVAVIDRSGGTTYYADSVKGRFTISRDNAKNTVYLQMNSLKPEDTAVYYCNADDFTYPSGWGFIYDYWGQGTQVTVSS” as the sequence, how does the “polyreactivity (PSR sort gate)” value read?
The value was “low polyreactivity”.

For “QVQLVESGGGLVQAGGSLRLSCAASGFIFFPYTMGWYRQAPGKERELVAAITNGGSTSYADSVKGRFTISRDNAKNTVYLQMNSLKPEDTAVYYCAADLGRNLLHTYYYWGQGTQVTVSS”, which “polyreactivity (PSR sort gate)” value is on record?
Its value is “low polyreactivity”.

Which “polyreactivity (PSR sort gate)” value does the source give for “QVQLVESGGGLVQAGGSLRLSCAASGFIFFQYAMGWYRQAPGKERELVAAISSGGNTYYADSVKGRFTISRDNAKNTVYLQMNSLKPEDTAVYYCAAYYPLRKGYGYWGQGTQVTVSS” here?
The value was “high polyreactivity”.

Which “polyreactivity (PSR sort gate)” value does the source give for “QVQLVESGGGLVQAGGSLRLSCAASGFIFFRNAMGWYRQAPGKERELVAAISGSGGSTYYADSVKGRFTISRDNAKNTVYLQLNSLKPEDTAVYYCAAAGPFNYDYWGQGTHVTVSS” here?
The value was “high polyreactivity”.

For “QVQLVESGGGLVQAGGSLRLSCAASGFIFFTNTMGWYRQAPGKEWELVAAINSNGGRTYYADSVKGRFTISRDNAKNTVYLQMNSLKPEDTAVYYCAARSVGGVARLDYWGQGTQVTVSS”, which “polyreactivity (PSR sort gate)” value is on record?
Its value is “low polyreactivity”.

Which “polyreactivity (PSR sort gate)” value does the source give for “QVQLVESGGGLVQAGGSLRLSCAASGFIFFTYAMGWYRQAPGKERELVAAISSRGGSTYYADSVKGRFTISRDNAKNTVYLQMNSLKPEDTAVYYCADRTRRRRGEYDYWGQGTQVTVSS” here?
The value was “high polyreactivity”.

Which “polyreactivity (PSR sort gate)” value does the source give for “QVQLVESGGGLVQAGGSLRLSCAASGFIFGANAMGWYRQAPGKERELVAAITWSAGRTYYADSVKGRFTISRDNAKNNVYLQMNSLKPEDTAVYYCAKQRARQSPEVGYWGQGTQVTVSS” here?
The value was “high polyreactivity”.

For “QVQLVESGGGLVQAGGSLRLSCAASGFIFGDNAMGWYRQAPGKERELVAAINSGSRTSYADSVKGRFTISRDNAKNTVYLQMNSLKPEDTAVYYCAAESVSSGDNASRYDYWGQGTQVTVSS”, which “polyreactivity (PSR sort gate)” value is on record?
Its value is “low polyreactivity”.

For “QVQLVESGGGLVQAGGSLRLSCAASGFIFGDNAMGWYRQAPGKERELVAGITVSDGSTYYADSVKGRFTISRDNAKNTVYLQMNSLKPEDTAVYYCNAAGRYKPGAPYDYWGQGTQVTVSS”, which “polyreactivity (PSR sort gate)” value is on record?
The value was “low polyreactivity”.

With “QVQLVESGGGLVQAGGSLRLSCAASGFIFGDYAMGWYRQAPGKEGELVAAIRGSDSTTYYADSVKGRFTISRDNAKNTVYLQMNSLKPEDTAVYYCAAVGVVPLKKSARVYYWGQGTQVTVSS” as the sequence, how does the “polyreactivity (PSR sort gate)” value read?
The value was “low polyreactivity”.

With “QVQLVESGGGLVQAGGSLRLSCAASGFIFGDYAMGWYRQAPGKERELVAAIRGSDSTTYYADSVKGRFTISRDNAKNTVYLQMNSLKPEDTAVYYCAAVGVVPRKKSARVYYWGQGTQVTVSS” as the sequence, how does the “polyreactivity (PSR sort gate)” value read?
The value was “low polyreactivity”.

With “QVQLVESGGGLVQAGGSLRLSCAASGFIFGEYTMGWYRQAPGKEREFVAAISWSGGSTSYADSVKGRFTISRDNAKNTVYLQMNSLKPEDTAVYYCAARYGSDYDYWGQGTQVTVSS” as the sequence, how does the “polyreactivity (PSR sort gate)” value read?
Its value is “low polyreactivity”.

For “QVQLVESGGGLVQAGGSLRLSCAASGFIFGGFTMGWSRQAPGNERELVAAISRSGGSTYYADSVKGRFTISRDNAKNTVYLQMNSLKPEDTAVYYCATLNYYGEVEYWGQGTQVTVSS”, which “polyreactivity (PSR sort gate)” value is on record?
The value was “high polyreactivity”.

With “QVQLVESGGGLVQAGGSLRLSCAASGFIFGGYAMGWYRHAPRKERELVAAISRSGGSTYYADSVKGRFTISRDNAKNTVYLQMNSLKPEDTAVYYCNAVPRRQGFNYWGQGTQVSVSS” as the sequence, how does the “polyreactivity (PSR sort gate)” value read?
Its value is “high polyreactivity”.

Which “polyreactivity (PSR sort gate)” value does the source give for “QVQLVESGGGLVQAGGSLRLSCAASGFIFGGYAMGWYRQAPGKERELVAAISWSGDNTYYADSVKGRFTISRDNAKNTVYLQMNSLKPEDTAVYYCAADSYGQEYDYWGQGTQVTVSS” here?
Its value is “low polyreactivity”.

With “QVQLVESGGGLVQAGGSLRLSCAASGFIFGGYVMGWYRQAPGKERELVAAITWSGGSTYYADSVKGRFTISRDNAKHTVYVQLNSQKREDTAVYYCNSRVPARLWRWSPYPVDYWGQGTQVTLSS” as the sequence, how does the “polyreactivity (PSR sort gate)” value read?
The value was “high polyreactivity”.

With “QVQLVESGGGLVQAGGSLRLSCAASGFIFGIYDMGWYRQAPGKERELVAAITYSGSSTYYADSVKGRFTISRDNAKNTVYLQMNSLKQEDTAVYYCNKTPWDWDYWDPEYYYWGQGTQVTVSS” as the sequence, how does the “polyreactivity (PSR sort gate)” value read?
Its value is “high polyreactivity”.

For “QVQLVESGGGLVQAGGSLRLSCAASGFIFGKYAMGWYRQAPGKERELVAAITSDGRTYYADSVKGRFTISRDNAKNTVYLQMNSLKPEDTAVYYSAATRYGHRYYYRPYEYWGQGSQVTVSS”, which “polyreactivity (PSR sort gate)” value is on record?
The value was “high polyreactivity”.

With “QVQLVESGGGLVQAGGSLRLSCAASGFIFGLYAIGWYRQAPGKERELVAAISRSGGSTYYADSVKGRFTISRDNAKNTVYLQMNSLKPEDTAVYYCNARYSWPRATWYDYWGQGTQVTVSS” as the sequence, how does the “polyreactivity (PSR sort gate)” value read?
Its value is “high polyreactivity”.

With “QVQLVESGGGLVQAGGSLRLSCAASGFIFGNNDMGWYRPAPGKERELVAAISNSGGRTYYADSVKGRFTISRDNAKNTVYLQMNSLKPEDTAVYYCAKAYRPPGYDSWGQGTQVTVSS” as the sequence, how does the “polyreactivity (PSR sort gate)” value read?
The value was “high polyreactivity”.

For “QVQLVESGGGLVQAGGSLRLSCAASGFIFGNNDRGWYRQAPGKERELVAGITWSGSSTYYADSVKGRFTISRDNAKNTVYLQMNSLKPEDTAVYYCIRVFTWRYGYRYEYWGQGTQVTVSS”, which “polyreactivity (PSR sort gate)” value is on record?
The value was “high polyreactivity”.

With “QVQLVESGGGLVQAGGSLRLSCAASGFIFGPYAMGWYRTAPGKERELVAAITYSSGSTYYADSVKGRFTISRDNAKNTVYLQMNSLKPEDTAVYYCNAEFWYETLYEYDYWGQGTQVTVSS” as the sequence, how does the “polyreactivity (PSR sort gate)” value read?
Its value is “high polyreactivity”.

For “QVQLVESGGGLVQAGGSLRLSCAASGFIFGQYAMGWYRQAPGKERELVAAISRSGGSTYYADSVKGRFTISRDNAKNTVYLQMNSLKPEDTAVYYCNRRARGDSYRLDYWGQGTQVTVSS”, which “polyreactivity (PSR sort gate)” value is on record?
Its value is “high polyreactivity”.

Which “polyreactivity (PSR sort gate)” value does the source give for “QVQLVESGGGLVQAGGSLRLSCAASGFIFGRYAMGWYRQAPGKERELVAAITASGGRTYYADSVKGRFTISRDNAKNTVYLQMNSLKPEDTAVYYCNTPSLWCGEDYWGQGTQVTVSS” here?
Its value is “high polyreactivity”.

For “QVQLVESGGGLVQAGGSLRLSCAASGFIFGRYAMGWYRQAPGKERELVAGISSRGGRTYYADSVKGRFTISRDTAKNPVFLQINSLKPEDTAVYYCGAAGLTDYVRYDYWGQGTQVTVSS”, which “polyreactivity (PSR sort gate)” value is on record?
Its value is “high polyreactivity”.

For “QVQLVESGGGLVQAGGSLRLSCAASGFIFGRYAMVWYRQAPGKERHFVASISWSGGSTHYADSVKGRFTISREKAKNTVYLHMNSLKPVDTAVYYCARGFPPYRVTHMNYWGQGTLVTVSS”, which “polyreactivity (PSR sort gate)” value is on record?
Its value is “high polyreactivity”.
